± gives the uncertainty stated by the source.
Assay: protein stability index of a GFP-peptide fusion (yeast GPS) (PSI 1-4); higher = more stable; sorted into four equal gates, so the index is relative within each strain
Details: san1∆
In short: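 Sequencing reads from sorted gates were used to score each peptide. The library consisted of tiled 17-residue yeast protein peptides fused downstream of GFP on a Cherry-expressing plasmid, pooled and carried in yeast. Mid-log cultures in leucine-free medium were split into four equal gates by GFP/Cherry ratio, and each gate's plasmids were PCR-amplified and Illumina-sequenced. The protein stability index adds up, over all gates, the read frequency multiplied by the gate number.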

Sequence | protein stability index
LTKAAIVQIDATPFRQW [RPS8A] | 2.347 ± 0.021
LTKKEKKEANLFPEQQN [RPL6A] | 3.25 ± 0.06
LTKKEKKEANLFPEQQT [RPL6B] | 3.25 ± 0.06
LTKLNEDDLVGVVQMVT [TAF14] | 3.02 ± 0.065

Same assay, conditions: ubr1∆

Sequence | protein stability index
LLGYTGIPTDKGPRFRK [PRE8] | 2.98 ± 0.11
LLHHVSELDSNDFFIIY [YJL039C/NUP192] | 2.02 ± 0.078
LLKGPASTVAKTAPIQE [YOR098C/NUP1] | 2.87 ± 0.071
LLKLLTRLVQLREFRIT [GRR1] | 1.08 ± 0.052
LLKPFHVKVNDKKEMTI [SIR3] | 2.68 ± 0.14
LLKQYPKDSSSTFREWK [YJR042W/NUP85] | 2.81 ± 0.042
LLMSCPRLSHLSLTAVP [GRR1] | 2.19 ± 0.059
LLNAADRDALSGWGAVV [PUP3] | 3.09 ± 0.099
LLQLKYFSNKTSTGIIR [POP5] | 1.98 ± 0.062
LLRFNGVERLIPVGDNT [PRE4] | 1.86 ± 0.093
LLSDVVSTSSGAAANNN [YJL041W/NSP1] | 3.52 ± 0.11
LLSGEDLTLDDISLKAD [YJL039C/NUP192] | 3.23 ± 0.048
LLSSESNIPTLIEKLQG [YDL116W/NUP84] | 3.07 ± 0.072
LLTPDIGAVYSGMGPDY [PRE8] | 1.52 ± 0.081
LLYADSLTAEAMTAAEH [CYT1] | 2.58 ± 0.041
LMASVILDSLPSVIHSS [YDL116W/NUP84] | 1.48 ± 0.034
LMDDMSDISDLDDLGFL [RPN3] | 1.77 ± 0.04
LMDKCLPKVRIRTRRAA [DIS3] | 1.5 ± 0.039
LMEKNRIRKLTGQNFLT [REC8] | 1.33 ± 0.041
LMLEDTDGDSILYYDVL [BRR2] | 3.1 ± 0.058
LMRELLKMMKLIVDTHV [PRP8] | 1.39 ± 0.06
LMYQIKKECALLISYGV [SRB4] | 1.93 ± 0.15
LNAIILKLEKLNTNRTF [SMC3] | 2.76 ± 0.048
LNAITLDGDRADKRGVL [SMC3] | 3.03 ± 0.097
LNAIVSKNSPAEDDVII [YJR042W/NUP85] | 3.22 ± 0.12

Sequence | protein stability index
LNDEGEPIKVNVRVGQA [RPN1] | 3.2 ± 0.063
LNDSNVKSFKPHLLKQG [RRP42] | 2.54 ± 0.13
LNEALLQCPMLYVESTG [CSN12] | 1.19 ± 0.054
LNEFFTRELAEEGYSGV [RPS3] | 1.68 ± 0.11
LNEIELDNLKLKELRID [GRR1] | 2.85 ± 0.092
LNKAGKPFRQTKFKVRG [RPL38] | 3.04 ± 0.081
LNLINAKLWFYIYLSHE [RPN3] | 1.44 ± 0.065
LNLLNYQELFIQPKNSD [YML103C/NUP188] | 2.3 ± 0.045
LNPQVADINKNFLSVIT [RPN2] | 1.95 ± 0.053
LNRLPAASLGDMVMATV [RPL23A] | 2.11 ± 0.057
LNSLLTYIKSEITQQEK [SMC4] | 2.63 ± 0.06
LNSLSPQAILAKNSIID [SWI1] | 1.75 ± 0.026
LNSMPNNVNEYSYTTIV [YJL039C/NUP192] | 2.6 ± 0.058
LPEIAKEIYTTLGNQML [YJR042W/NUP85] | 2.49 ± 0.069
LPEPTEGFAADDEPTTP [FAS1] | 2.92 ± 0.065
LPGDMLAVCDELGNMTM [SIN4] | 2.66 ± 0.085
LPGTNNNSNSNNNSSNE [SEC65] | 2.8 ± 0.049
LPLDSQDDEYVKDWLYD [PRP8] | 3.1 ± 0.053
LPLQAQQQLYGGNNNNN [SWI1] | 2.56 ± 0.045
LPNKSTISKTVSSTIPR [FAS2] | 2.94 ± 0.084
LPVASPFHSHLLVPASD [FAS1] | 1.96 ± 0.044
LPYNWDALEMQWRYLYD [ARP7] | 2.19 ± 0.068
LQAIQEKLNKTDENTPS [ITC1] | 2.89 ± 0.043
LQDLEEAKSFQDEAELV [RPC82] | 3.72 ± 0.17
LQDLSRYSRQFINNVLS [GRR1] | 2.74 ± 0.051

Sequence | protein stability index
LQDWQREDEFGSIPSLT [YDL088C/ASM4] | 3.53 ± 0.082
LQGIVIWDSQKFFIMIV [POP4] | 2.3 ± 0.045
LQGVTYPVLRKLYKKIA [YIL149C/MLP2] | 1.83 ± 0.055
LQISDIPAAGNNRSVSM [SRB5] | 2.8 ± 0.06
LQKSSKSMITSEGEQKS [YAR002W/NUP60] | 3.06 ± 0.046
LQLELTIEDIAVAITRA [RPO31] | 2.07 ± 0.041
LQLLPLQKAVRGHVLQF [SNF2] | 1.16 ± 0.026
LQMDYKDDMKVDDAIEL [PRE9] | 3.51 ± 0.071
LQNDLIHKIQNDNNLKK [RPN5] | 3.12 ± 0.065
LQNIVMDCTKEEEATMT [YIL149C/MLP2] | 2.98 ± 0.089
LQNKPDAKKARFWSFMK [SIR4] | 2.17 ± 0.19
LQNNINNSNNNNIIRIQ [SNF11] | 3.32 ± 0.089
LQQKHELDTASRILKAQ [YGR119C/NUP57] | 3.03 ± 0.034
LQRHSGISSTLVSANND [YLR018C/POM34] | 2.94 ± 0.07
LQYGWKVERHIMDNDPV [RPO21] | 1.24 ± 0.098
LRDIGECENEIKTKQMS [SMC2] | 3.41 ± 0.12
LRDREDWGQALRLLLLL [YJR042W/NUP85] | 1.66 ± 0.044
LRDRNFSATGNFGFGID [RPL11A] | 3.25 ± 0.053
LRDSLADKIVDEFPELK [NUT2] | 1.44 ± 0.051
LRGCKFLQSVDITGIRD [GRR1] | 1.83 ± 0.04
LRIGRIEDVTPVPSDST [RPS14B] | 2.92 ± 0.037
LRLCLDIVPYFLKHNGE [RPN1] | 2.52 ± 0.074
LRQFKTCPVEVIKRLEA [BRR2] | 2.81 ± 0.1
LRQLLKERYTVEDELTE [RRI1] | 3.51 ± 0.084
LRRTTQRVFDETEQEYS [YDL116W/NUP84] | 3.19 ± 0.043

Sequence | protein stability index
LRTEYGWDSLASRNVWS [SNU114] | 3.38 ± 0.076
LRYVKQIEGPFLIIVPK [ISW2] | 2.34 ± 0.045
LSALDHYERTQTKENKR [RPN8] | 2.68 ± 0.057
LSEDKKKLDYVLALKVE [RPS9A] | 1.49 ± 0.29
LSETNGLHKFVKGDLLQ [PRE10] | 3.48 ± 0.11
LSIPGKSTPEGTLWAHV [SNU114] | 3.03 ± 0.04
LSKEVPFSYLIDETMMD [SRB5] | 2.55 ± 0.048
LSLEEVEGHLFEIIDEA [FAS1] | 3.07 ± 0.069
LSLNLGDYGSAKCNSLL [POP5] | 2.46 ± 0.093
LSNCLANARDFGEWAGM [BRR2] | 2.45 ± 0.07
LSRGYTCPGLSLTDVAF [ECM29] | 2.68 ± 0.12
LSRLQKSGRINGFHGRL [SMC4] | 3.19 ± 0.064
LSSLKSFAIYSSTIDAP [SRB8] | 1.73 ± 0.038
LSSNITFDGKPTATPSP [YMR153W/NUP53] | 2.91 ± 0.046
LSSVALRSDFYILANHY [YJL039C/NUP192] | 2 ± 0.098
LSTLEPSTSITLAERQQ [RPN9] | 2.86 ± 0.036
LTIGVKFFMKHGLILEL [SRB5] | 1.94 ± 0.033
LTITKAAGANVDNVWAD [RPP1B] | 2.85 ± 0.059
LTKAAIVQIDATPFRQW [RPS8A] | 2.362 ± 0.014
LTKKEKKEANLFPEQQN [RPL6A] | 3.16 ± 0.048
LTKKEKKEANLFPEQQT [RPL6B] | 3.15 ± 0.049
LTKLNEDDLVGVVQMVT [TAF14] | 2.98 ± 0.063

From the supplement of paper PMC9732359
